The values below come from US9051358B2, “Nonnatural collagen-like protein and use thereof” (ZHEJIANG UNIVERSITY, priority 2009, dated 2015).

Data set [1] can be described thus: Half-life of GLK/IFNα fusion proteins in SD rats. The format is in vivo. The source says:
The structure characteristics and half-life in SD rats of the different GLK/IFNαs, which was constructed by fusion to different GLK, was compared in Table 5.

The next data set relates to 2′,5′-OAS. The experiment in a line: Serum 2′,5′-OAS activity in rhesus monkeys after subcutaneous administration. The format is in vivo. As for the experimental part: Rhesus monkeys.(n=15; including female and male; age range: 3-4; weight range: 4.2-4.8 kg), were purchased from Animal Center of Chinese Academy of Military Medicine and divided into five groups (3 in each group). Samples were diluted with PBS, wherein rGLK1164/IFNα was diluted respectively to 0.36, 1.0 and 3.6 pmol/kg, IFNα (positive control) was diluted to 0.36 pmol/kg, and rGLK1164 (blank control) was diluted to 0.36 pmol/kg. The diluted samples were administered to rhesus monkeys subcutaneously and the serum samples were collected at 0, 1, 2, 4, 8, 10, 14 […] after injection respectively. The activity of 2′, 5′-OAS in serum was measured with 2′,5′-OAS radioimmunoassay kit (Eiken Chemical Co., Tokyo, Japan).

The subject of a further data set is erythropoiesis. Put plainly: Erythropoiesis in normal mice, hemoglobin (Hb) content. The note with it: weekly subcutaneous administration. The format is in vivo, BALB/c mice. The protocol: rEPO/GLK1074 fusion protein was compared with standard rEPO (EPOGEN®, AMGEN Inc.) in erythropoiesis activity in mice. BALB/c mice (male, 6-8 weeks old, 18˜20 g/only) from the Shanghai Institute of animal testing center were used in the experiments. Grouping, injection, and tail vein blood samples collecting were performed according to the following table. Hemoglobin (Hb) content was determined by colorimetric.

Regarding “GLK302/IFNα: IFNα fused with GLK302, a repeated sequence of GGSGGS (SEQ ID NO: 16)”, the “Half-life” value in data set [1] amounted to 14.4 h. As to IFNα [reference compound], in the data set with 2′,5′-OAS, the detectability in vivo result is “could hardly be detected 6 days later”. On to “rEPO: standard rEPO (EPOGEN®, AMGEN Inc.) [reference compound]”, for which, in the data set on erythropoiesis, the “erythropoiesis activity, Hb levels” value was “significantly lower than rEPO/GLK1074”.
